Drawing on patent US20220380776A1, this text covers Kd for one substance.

pKd: −log10 of the molar value.

The test concerns the target CD46 (UniProt P15529). Description: Kd, method not stated (column head 'Kd (Oleks)').
Chain of UniProt P15529 (P15529 35-343 limits assumed): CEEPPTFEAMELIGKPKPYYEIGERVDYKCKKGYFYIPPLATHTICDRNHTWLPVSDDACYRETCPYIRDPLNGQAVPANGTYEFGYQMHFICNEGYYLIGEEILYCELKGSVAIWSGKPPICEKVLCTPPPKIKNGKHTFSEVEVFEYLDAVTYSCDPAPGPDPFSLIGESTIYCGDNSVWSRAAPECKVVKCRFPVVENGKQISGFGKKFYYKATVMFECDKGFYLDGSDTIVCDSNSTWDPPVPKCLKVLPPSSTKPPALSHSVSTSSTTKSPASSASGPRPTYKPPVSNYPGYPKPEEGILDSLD

One may read the pKd as −log10 of the Kd, conventionally taken in molar units. A higher pKd goes with a small Kd. With Ad35 knob A8: Ile192Val Ile256Val, the negative-log Kd (pKd) is 7.86.
